Assay results as given in article PMC2173952.

Legend:
[1] = biological target: cpSRP54-his (A. thaliana) (UniProt P37107); assay: co-IP
Trx-cpFtsY = Trx-cpFtsY (UniProt O80842); assay: pull-down
Sequence of UniProt O80842 (O80842 41-366): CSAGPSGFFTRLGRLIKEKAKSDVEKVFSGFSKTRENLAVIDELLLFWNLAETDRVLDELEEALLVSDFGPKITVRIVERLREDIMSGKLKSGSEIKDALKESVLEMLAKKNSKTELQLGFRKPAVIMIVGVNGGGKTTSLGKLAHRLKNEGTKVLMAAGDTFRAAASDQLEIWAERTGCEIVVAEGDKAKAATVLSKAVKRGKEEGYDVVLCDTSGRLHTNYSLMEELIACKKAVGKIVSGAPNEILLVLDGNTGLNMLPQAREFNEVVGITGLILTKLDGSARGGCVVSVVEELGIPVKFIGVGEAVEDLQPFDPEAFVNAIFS

Sequence of UniProt P37107 (P37107 76-564): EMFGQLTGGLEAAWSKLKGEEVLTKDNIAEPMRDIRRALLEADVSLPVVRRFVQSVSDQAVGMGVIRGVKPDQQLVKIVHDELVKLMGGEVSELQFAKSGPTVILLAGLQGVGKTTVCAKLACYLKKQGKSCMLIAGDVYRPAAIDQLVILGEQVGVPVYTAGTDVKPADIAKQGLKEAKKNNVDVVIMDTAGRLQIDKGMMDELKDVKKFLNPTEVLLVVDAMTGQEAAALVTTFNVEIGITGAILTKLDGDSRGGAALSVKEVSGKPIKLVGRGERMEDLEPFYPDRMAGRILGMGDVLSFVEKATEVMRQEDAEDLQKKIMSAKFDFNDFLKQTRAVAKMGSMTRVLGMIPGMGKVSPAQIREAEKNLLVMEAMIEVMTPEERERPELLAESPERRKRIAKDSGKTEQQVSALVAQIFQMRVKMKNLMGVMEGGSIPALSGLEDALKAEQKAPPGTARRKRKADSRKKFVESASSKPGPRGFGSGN

In the case of “ALB3 (from UniProt Q8LBP4 57-462) (natural protein)”, the fold change of the coprecipitate with cpFtsY added against cpSRP alone [1] is reported as over 2 fold and the fold change of coprecipitated ALB3 with cpSRP added against cpFtsY alone (Trx-cpFtsY) is reported as over 6 fold.
